In the Immune Epitope Database (IEDB) one finds IC50 and Kd data, which are given here for six sequences.

For assay [1], the target named is HLA-B*15:01. The experiment in a line: IEDB peptide-MHC binding, purified MHC/competitive/fluorescence; ≥ and ≤ were set here for values at or beyond the usual limits of such assays. The following applies: source organism: Zaire ebolavirus.
The target of assay [2] is HLA-B*07:02. Described as above. To be noted: source organism: Zaire ebolavirus.
Assay [3] deals with HLA-A*11:01. The assay is described as above. The following applies: source organism: Zaire ebolavirus.
The target in assay [4] is HLA-A*02:01. Described as above. To be noted: source organism: Zaire ebolavirus.
Another assay deals with HLA-A*24:02. Described as above. To be noted: source organism: Zaire ebolavirus.
In the next assay the target is HLA-A*02:11. The experiment in a line: IEDB peptide-MHC binding, purified MHC/direct/fluorescence; filed as Kd, often an IC50 or EC50 that approximates it; ≥ and ≤ were set here for values at or beyond the usual limits of such assays. The following applies: source organism: Francisella tularensis subsp. tularensis FSC033.
A further assay has as its target HLA-C*12:03. The description is as above. The following applies: source organism: Francisella tularensis subsp. tularensis WY96-3418.
For a further assay, the target named is HLA-A*02:12. Described as above. The following applies: source organism: Francisella tularensis subsp. tularensis FSC033.
A further assay deals with HLA-A*02:19. The assay is described as above. To be noted: source organism: Francisella tularensis subsp. tularensis FSC033.
Assay [5] addresses HLA-A*02:01. The assay is described as above. To be noted: source organism: Francisella tularensis subsp. holarctica LVS.
For a further assay, the target named is HLA-C*08:02. Described as above.
For a further assay, the target named is HLA-C*03:03. The description is as above. To be noted: source organism: Mycobacterium tuberculosis C.
The target in another assay is HLA-C*05:01. The assay is described as above.
The target of another assay is HLA-B*15:17. In words: IEDB peptide-MHC binding, purified MHC/competitive/fluorescence; filed as Kd, often an IC50 or EC50 that approximates it; ≥ and ≤ were set here for values at or beyond the usual limits of such assays. The following applies: source organism: Francisella tularensis subsp. tularensis FSC198.
The next assay concerns the target HLA-A*26:02. The assay is described as above. The following applies: source organism: Francisella tularensis subsp. tularensis FSC198.
For the next assay, the target named is HLA-A*02:03. Described as above. To be noted: source organism: Francisella tularensis subsp. tularensis FSC198.
The next assay has as its target HLA-B*35:01. The description is as above. To be noted: source organism: Francisella tularensis subsp. tularensis FSC198.
The target in the next assay is HLA-A*30:01. Described as above. The following applies: source organism: Francisella tularensis subsp. tularensis FSC198.
A further assay addresses HLA-A*31:01. The experiment in a line: IEDB peptide-MHC binding, purified MHC/direct/fluorescence; filed as Kd, often an IC50 or EC50 that approximates it; ≥ and ≤ were set here for values at or beyond the usual limits of such assays. To be noted: source organism: Francisella tularensis subsp. holarctica LVS.
The next assay addresses HLA-A*69:01. The description is as above. The following applies: source organism: Francisella tularensis subsp. holarctica LVS.
In another assay the target is HLA-A*01:01. Described as above. The following applies: source organism: Francisella tularensis subsp. holarctica LVS.
The target of assay [6] is HLA-B*58:01. The assay is described as above. To be noted: source organism: Francisella tularensis subsp. holarctica LVS.
Another assay deals with HLA-B*57:01. Described as above. To be noted: source organism: Francisella tularensis subsp. holarctica LVS.
The target in assay [7] is HLA-B*15:01. The description is as above. The following applies: source organism: Francisella tularensis subsp. holarctica LVS.
Assay [8] concerns the target HLA-B*07:02. The description is as above. To be noted: source organism: Francisella tularensis subsp. holarctica LVS.
For the next assay, the target named is HLA-B*08:01. Described as above. The following applies: source organism: Francisella tularensis subsp. tularensis FSC033.
Another assay has as its target HLA-B*15:09. The assay is described as above. To be noted: source organism: Francisella tularensis subsp. tularensis FSC033.
A further assay has as its target HLA-B*15:02. Described as above. The following applies: source organism: Francisella tularensis subsp. tularensis FSC033.
The next assay concerns the target HLA-B*27:05. The description is as above. The following applies: source organism: Francisella tularensis subsp. holarctica LVS.
The next assay concerns the target HLA-B*48:01. The description is as above. To be noted: source organism: Francisella tularensis subsp. holarctica LVS.
Assay [9] has as its target HLA-A*11:01. Described as above. To be noted: source organism: Francisella tularensis subsp. holarctica LVS.
The next assay has as its target HLA-B*46:01. Described as above. To be noted: source organism: Francisella tularensis subsp. holarctica LVS.
For a further assay, the target named is HLA-A*68:02. Described as above. The following applies: source organism: Francisella tularensis subsp. holarctica LVS.
Assay [10] has as its target HLA-B*58:01. The experiment in a line: IEDB peptide-MHC binding, purified MHC/competitive/fluorescence; filed as Kd, often an IC50 or EC50 that approximates it; ≥ and ≤ were set here for values at or beyond the usual limits of such assays. The following applies: source organism: Yersinia pestis Nepal516.
In assay [11] the target is HLA-B*15:01. The assay is described as above. To be noted: source organism: Yersinia pestis Nepal516.
The target of another assay is HLA-B*51:01. The assay is described as above. The following applies: source organism: Yersinia pestis Nepal516.
Another assay has as its target HLA-B*39:01. The description is as above. To be noted: source organism: Yersinia pestis Nepal516.
In assay [12] the target is HLA-A*02:01. The assay is described as above. The following applies: source organism: Yersinia pestis Nepal516.
The mark [13] stands for this setting: source organism: Mycobacterium tuberculosis C.
Where [14] appears, read: source organism: Yersinia pestis Nepal516.

A word on the IC50: it is the point on the concentration scale where inhibition reaches its midpoint. Low readings indicate inhibition by little substance, high ones a need for much substance. In the case of RTNFLIKFL, the IC50 with HLA-B*15:01 [1] was at least 725000 nM; with HLA-B*07:02 [2], at least 275000 nM; in the assay with HLA-A*11:01 [3], at least 589000 nM; with HLA-A*02:01 [4], at least 165000 nM; in the assay with HLA-A*24:02 it was 10200 nM.
A word on the Kd: it is the free concentration of one partner at which half of the binding sites on the other are occupied at equilibrium, for simple one-to-one binding. Higher therefore signals lower affinity. Take YLYPWSLGL: the Kd with HLA-A*02:11 was at most 1 nM; in the assay with HLA-C*12:03 it was 4 nM; with HLA-A*02:12, 2 nM; with HLA-A*02:19, 12 nM; in the assay with HLA-A*02:01 [5] it was at most 1 nM; in the assay with HLA-C*08:02 (source organism: Francisella tularensis subsp. tularensis WY96-3418) it was at least 20000 nM.
Turning to SPQNHSETA, the IC50 in the assay with HLA-B*07:02 [2] was 45200 nM. This counts as double-digit micromolar.
Take YLDAIQQPV: the figures for the Kd with HLA-C*03:03, with HLA-C*05:01 (setting [13]) and with HLA-C*08:02 (setting [13]) were 256 nM, 25 nM and at most 1 nM, respectively.
For the sequence FQVNRFTGY, the Kd was at least 20000 nM with HLA-B*15:17; 113 nM in the assay with HLA-A*26:02; at least 20000 nM with HLA-A*02:03; 4410 nM with HLA-B*35:01; at least 20000 nM in the assay with HLA-A*30:01; at least 20000 nM with HLA-A*31:01. Moreover, the Kd was at least 20000 nM with HLA-A*69:01; at least 20000 nM in the assay with HLA-A*01:01; at least 20000 nM with HLA-B*58:01 [6]; at least 20000 nM in the assay with HLA-B*57:01; 9.7 nM with HLA-B*15:01 [7]; at least 20000 nM with HLA-B*07:02 [8]. Moreover, the Kd in the assay with HLA-B*08:01 was at least 20000 nM; with HLA-B*15:09, at least 20000 nM; with HLA-B*15:02, 8 nM; with HLA-B*27:05, 632 nM; with HLA-B*48:01, at least 20000 nM; with HLA-A*11:01 [9], at least 20000 nM. Also, the Kd in the assay with HLA-A*02:01 [5], with HLA-B*46:01 and with HLA-A*68:02 was at least 20000 nM each time.
FSYNVAYAI: the Kd in the assay with HLA-B*58:01 [10] was 36.3 nM; in the assay with HLA-B*15:01 [11] it was at least 20000 nM; in the assay with HLA-B*51:01, 2270 nM; with HLA-B*39:01, 469 nM; in the assay with HLA-A*02:01 [12], 29.6 nM; with HLA-C*05:01 (setting [14]) it was 4960 nM. Also, the Kd with HLA-C*08:02 (setting [14]) was 182 nM.
